The test has as its target T1, Myo2p globular tail subdomain II (residues 1346–1574), tryptic fragment (S. cerevisiae, UniProt P19524 1346-1574).
T1 sequence (looked up): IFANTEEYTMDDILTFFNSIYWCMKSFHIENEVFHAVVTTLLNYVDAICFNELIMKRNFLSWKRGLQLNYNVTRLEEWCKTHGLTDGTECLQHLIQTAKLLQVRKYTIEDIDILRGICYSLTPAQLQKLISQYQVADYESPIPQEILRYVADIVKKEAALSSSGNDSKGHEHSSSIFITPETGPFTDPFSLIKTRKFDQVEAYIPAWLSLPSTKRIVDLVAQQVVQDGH
Description: SEC.

A value given as a limit tells only on which side of the number the result lay.

Consider one molecule from PMC2171732 (The Journal of Cell Biology, 2005).

B1: Myo2p globular tail subdomain I (residues 1131–1345), tryptic fragment (domain or fragment, S. cerevisiae, UniProt P19524 1131-1345, looked up)
chain: STPSSGNNHIDSLSVDRENGVNATQINEELYRLLEDTEILNQEITEGLLKGFEVPDAGVAIQLSKRDVVYPARILIIVLSEMWRFGLTKQSESFLAQVLTTIQKVVTQLKGNDLIPSGVFWLANVRELYSFVVFALNSILTEETFKNGMTDEEYKEYVSLVTELKDDFEALSYNIYNIWLKKLQKQLQKKAINAVVISESLPGFSAGETSGFLNK
On to B1, for which the Kd is ≤ 1 nM.
